Data reported in the supplement of paper PMC7877785.
± gives the uncertainty stated by the source.

Experiment: self-splicing fitness, log relative to wild type (ln ratio); higher = more splicing; Tetrahymena group I intron in knt gene, E. coli kanamycin selection, DiMSum; sequences stand for … in CUCUCU…GGAGGGAAAAGUUAUCAGGCAUGCACCUGGUAGCUAGUCUUUAAACCAAUAGAUUGCAUCGGUUUAAAAGGCAAGACCGUCAAAUUGCGGGAAAGGGGUCAACAGCCGUUCAGUACCAAGUCUCAGGGGAAACUUUGAGAUGGCCUUGCAAAGGGUAUGGUAAUAAGCUGACGGACAUGGUCCUAACCACGCAGCCAAGUCCUAAGUCAACAGAUCUUCUGUUGAUAUGGAUGCAGUUCACAGACUAAAUGUCGGUCGGGGAAGAUGUAUUCUUCUCAUAAGAUAUAGUCGGACCUCUCCUUAAUGGGAGCUAGCGGAUGAAGUGAUGCAACACUGGAGCCGCUGGGAACUAAUUUGUAUGCGAAAGUAUAUUGAUUAGUUUUGGAGUACUCGUGGUCG
Summary of the method: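 A randomised library covering all eight P1ex-region intron nucleotides was built with the intron in the knt kanamycin-resistance gene on pET-22b(+) and held in E. coli BL21(DE3). Cells were grown overnight at 37°C or 30°C on LB agar, with or without 25 μg/mL kanamycin, plus 100 μg/mL carbenicillin, 50 μM IPTG and 0.2% rhamnose, and pooled colonies were amplicon-sequenced on an Illumina HiSeq 2500. DiMSum fitness is the error-weighted combination of wild-type-normalised replicate fold changes, kanamycin versus none.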

Row | Sequence | self-splicing fitness (ln) (30 °C) | self-splicing fitness (ln) (37 °C)
1 | GCACAGCAAUAUUACGACGG | -1.34 ± 0.098 | -0.832 ± 0.13
2 | GCACAGCAAUAUUACGACUU | -0.119 ± 0.076 | 0.33 ± 0.088
3 | GCACAGCAAUAUUACGAGAG | -2.96 ± 0.14 | -1.33 ± 0.11
4 | GCACAGCAAUAUUACGCACC | -0.769 ± 0.13 | 0.129 ± 0.15
5 | GCACAGCAAUAUUACGCAGA | -3.16 ± 0.28 | -3.06 ± 0.29
6 | GCACAGCAAUAUUACGCAGG | -3.5 ± 0.18 | -2.74 ± 0.18
7 | GCACAGCAAUAUUACGCGGU | -4.01 ± 0.2 | -1.87 ± 0.11
8 | GCACAGCAAUAUUACGCUGG | -3.29 ± 0.18 | -1.92 ± 0.15
9 | GCACAGCAAUAUUACGGAAC | -1.06 ± 0.086 | -0.752 ± 0.12
10 | GCACAGCAAUAUUACGGAGG | -2 ± 0.099 | -0.502 ± 0.11
11 | GCACAGCAAUAUUACGGAUU | -0.914 ± 0.055 | -0.231 ± 0.073
12 | GCACAGCAAUAUUACGGCAA | -1.31 ± 0.13 | -0.887 ± 0.14
13 | GCACAGCAAUAUUACGGCCA | -1.84 ± 0.21 | -0.441 ± 0.19
14 | GCACAGCAAUAUUACGGCUG | -3.49 ± 0.13 | -2.4 ± 0.14
15 | GCACAGCAAUAUUACGGGGC | -3.43 ± 0.16 | -2.62 ± 0.18
16 | GCACAGCAAUAUUACGGUCU | -0.685 ± 0.042 | 0.63 ± 0.06
17 | GCACAGCAAUAUUACGGUGG | -1.54 ± 0.048 | -1.35 ± 0.07
18 | GCACAGCAAUAUUACGGUUG | -2.18 ± 0.059 | -1.02 ± 0.072
19 | GCACAGCAAUAUUACGUCGG | -1.72 ± 0.1 | -1.09 ± 0.13
20 | GCACAGCAAUAUUACGUGAC | -1.13 ± 0.089 | -1.97 ± 0.1
21 | GCACAGCAAUAUUACGUUCG | -0.717 ± 0.065 | -0.441 ± 0.085
22 | GCAGAGCAAUAUUACGACCG | -3.12 ± 0.46 | 
23 | GCAGAGCAAUAUUACGAGCA | -2.32 ± 0.24 | -2.4 ± 0.34
24 | GCAGAGCAAUAUUACGAGGU |  | -2.24 ± 0.31
25 | GCAGAGCAAUAUUACGAGUC | -2.97 ± 0.25 | -2.39 ± 0.32

Row | Sequence | self-splicing fitness (ln) (30 °C) | self-splicing fitness (ln) (37 °C)
26 | GCAGAGCAAUAUUACGAUAC | -2.79 ± 0.28 | -0.699 ± 0.22
27 | GCAGAGCAAUAUUACGAUAU | -3.38 ± 0.29 | -1.72 ± 0.2
28 | GCAGAGCAAUAUUACGAUGC | -4.01 ± 0.32 | -1.99 ± 0.18
29 | GCAGAGCAAUAUUACGCAUC | -3.14 ± 0.34 | 
30 | GCAGAGCAAUAUUACGCGAU | -2.94 ± 0.36 | 
31 | GCAGAGCAAUAUUACGCGUC | -3.88 ± 0.2 | -2.03 ± 0.14
32 | GCAGAGCAAUAUUACGCUGU | -2.66 ± 0.18 | -2.87 ± 0.23
33 | GCAGAGCAAUAUUACGGACU | -2.18 ± 0.34 | -1.9 ± 0.21
34 | GCAGAGCAAUAUUACGGUGG | -3.65 ± 0.33 | -2.21 ± 0.21
35 | GCAGAGCAAUAUUACGGUGU | -4.3 ± 0.32 | -2.31 ± 0.16
36 | GCAGAGCAAUAUUACGUAAU | -2.29 ± 0.21 | -1.95 ± 0.35
37 | GCAGAGCAAUAUUACGUCAG |  | -2.97 ± 0.29
38 | GCAGAGCAAUAUUACGUGGG | -3.55 ± 0.12 | -3.03 ± 0.15
39 | GCAUAGCAAUAUUACGAAAG | -2.72 ± 0.2 | -2.69 ± 0.24
40 | GCAUAGCAAUAUUACGAAGG | -2.02 ± 0.2 | -1.31 ± 0.22
41 | GCAUAGCAAUAUUACGAAGU | -3.88 ± 0.28 | 
42 | GCAUAGCAAUAUUACGACCU | -0.833 ± 0.15 | -0.375 ± 0.15
43 | GCAUAGCAAUAUUACGACUC | -0.352 ± 0.16 | 0.841 ± 0.13
44 | GCAUAGCAAUAUUACGAGGU | -3.73 ± 0.4 | -2.07 ± 0.4
45 | GCAUAGCAAUAUUACGAGUU | -3.15 ± 0.13 | -1.33 ± 0.1
46 | GCAUAGCAAUAUUACGAUAA | -2.1 ± 0.15 | -1.27 ± 0.13
47 | GCAUAGCAAUAUUACGCCGC |  | -1.28 ± 0.27
48 | GCAUAGCAAUAUUACGCGGA |  | -1.69 ± 0.31
49 | GCAUAGCAAUAUUACGCUUC |  | -2.69 ± 0.19
50 | GCAUAGCAAUAUUACGGACA | -1.74 ± 0.15 | -0.572 ± 0.14

Row | Sequence | self-splicing fitness (ln) (30 °C) | self-splicing fitness (ln) (37 °C)
51 | GCAUAGCAAUAUUACGGGCU | -2.22 ± 0.23 | -0.579 ± 0.17
52 | GCAUAGCAAUAUUACGGGGU | -3.74 ± 0.23 | -1.99 ± 0.13
53 | GCAUAGCAAUAUUACGUAAC | -2.24 ± 0.13 | -1.57 ± 0.14
54 | GCAUAGCAAUAUUACGUACU | -0.89 ± 0.07 | -0.056 ± 0.079
55 | GCAUAGCAAUAUUACGUCGU | -3.44 ± 0.17 | -1.06 ± 0.13
56 | GCCAAGCAAUAUUACGAAAA | -2.45 ± 0.27 | -1.54 ± 0.2
57 | GCCAAGCAAUAUUACGAAUC | -1.25 ± 0.078 | -1.5 ± 0.095
58 | GCCAAGCAAUAUUACGAAUU | -3.39 ± 0.13 | -1.51 ± 0.1
59 | GCCAAGCAAUAUUACGACCC | -0.14 ± 0.14 | -0.813 ± 0.17
60 | GCCAAGCAAUAUUACGACUA | -1.82 ± 0.17 | -1.77 ± 0.16
61 | GCCAAGCAAUAUUACGAGAC | -2.73 ± 0.18 | -0.746 ± 0.12
62 | GCCAAGCAAUAUUACGAGGC | -2.66 ± 0.16 | -1.93 ± 0.21
63 | GCCAAGCAAUAUUACGAUGC | -1.7 ± 0.09 | -0.188 ± 0.11
64 | GCCAAGCAAUAUUACGCAAU | -1.35 ± 0.075 | -0.812 ± 0.082
65 | GCCAAGCAAUAUUACGCCGA | -1.64 ± 0.15 | -0.102 ± 0.11
66 | GCCAAGCAAUAUUACGCCGC | -2.92 ± 0.31 | -1.02 ± 0.28
67 | GCCAAGCAAUAUUACGCGCC | -3.75 ± 0.27 | -2.56 ± 0.32
68 | GCCAAGCAAUAUUACGGACA | -1.12 ± 0.11 | 0.31 ± 0.093
69 | GCCAAGCAAUAUUACGGCAA | -2.23 ± 0.17 | -1.06 ± 0.15
70 | GCCAAGCAAUAUUACGGCCC | -2.13 ± 0.2 | -1.57 ± 0.22
71 | GCCAAGCAAUAUUACGGCUU | -5.36 ± 0.34 | -3.31 ± 0.19
72 | GCCAAGCAAUAUUACGGGUC | -3.34 ± 0.18 | -2.8 ± 0.27
73 | GCCAAGCAAUAUUACGGUGC | -3.11 ± 0.24 | -2.14 ± 0.21
74 | GCCAAGCAAUAUUACGGUUU | -1.08 ± 0.047 | -0.943 ± 0.07
75 | GCCAAGCAAUAUUACGUAUU | -3.29 ± 0.16 | -2.28 ± 0.14

Row | Sequence | self-splicing fitness (ln) (30 °C) | self-splicing fitness (ln) (37 °C)
76 | GCCAAGCAAUAUUACGUCGU | -0.691 ± 0.058 | -0.359 ± 0.066
77 | GCCAAGCAAUAUUACGUCUU | -3.28 ± 0.2 | -2.38 ± 0.16
78 | GCCAAGCAAUAUUACGUGAG | -1.17 ± 0.071 | -0.535 ± 0.084
79 | GCCAAGCAAUAUUACGUGCU | -3.04 ± 0.11 | -1.56 ± 0.092
80 | GCCAAGCAAUAUUACGUGUC | -1.62 ± 0.06 | -0.848 ± 0.075
81 | GCCAAGCAAUAUUACGUUUG | -3.38 ± 0.16 | -2.61 ± 0.21
82 | GCCCAGCAAUAUUACGAAAA | -1.7 ± 0.1 | -1.87 ± 0.12
83 | GCCCAGCAAUAUUACGAAAC | -1.34 ± 0.058 | -0.851 ± 0.078
84 | GCCCAGCAAUAUUACGAACU | -1.26 ± 0.14 | -1 ± 0.14
85 | GCCCAGCAAUAUUACGAAUA | -1.62 ± 0.1 | -1.19 ± 0.12
86 | GCCCAGCAAUAUUACGAAUC | -0.771 ± 0.083 | -0.457 ± 0.086
87 | GCCCAGCAAUAUUACGACCA | -1.44 ± 0.19 | -0.385 ± 0.23
88 | GCCCAGCAAUAUUACGACUA | -1.54 ± 0.1 | -0.508 ± 0.11
89 | GCCCAGCAAUAUUACGACUU | -1.45 ± 0.095 | -0.824 ± 0.1
90 | GCCCAGCAAUAUUACGAGGG | -4 ± 0.18 | -2.74 ± 0.21
91 | GCCCAGCAAUAUUACGAGUC | -0.477 ± 0.039 | -0.126 ± 0.059
92 | GCCCAGCAAUAUUACGAUAU | -1.54 ± 0.077 | -1.31 ± 0.1
93 | GCCCAGCAAUAUUACGCGGC | -4.94 ± 0.39 | -2.51 ± 0.24
94 | GCCCAGCAAUAUUACGCGUA | -0.753 ± 0.061 | -0.155 ± 0.064
95 | GCCCAGCAAUAUUACGGAUG | -2.15 ± 0.075 | -1.49 ± 0.092
96 | GCCCAGCAAUAUUACGGCAC | -1.45 ± 0.067 | -0.0437 ± 0.094
97 | GCCCAGCAAUAUUACGGCGG | -3.37 ± 0.16 | -1.93 ± 0.17
98 | GCCCAGCAAUAUUACGGGCA | -2.35 ± 0.2 | -2.69 ± 0.21
